Source: article PMC3621117 (The FEBS journal, 2013)

Molecular target: the molecule itself
Assay: SEC

B1: wild-type ExsD (natural protein)
chain: VVGSDARSRGRVPGYASSSLYRESGIISARQLALLQRMLPRLRLEQLFRCEWLQQRLARGLALGREEVRQILLCAAQDDDGWCSELGDRVNLAVPQSMIDWVLLPVYGWWESLLDQAIPGWRLSLVELETQSRQLRVKSEFWSRVAELEPEQAREELARVAKCQARTQEQVAELAGKLETASALAKSAWPNWQRGMATLLASGGLAGFEPIPEVLECLWQPLCRLDDDVGAADAVQAWLHERNLCQAQDHFYWQS
**Q.** For B1, which “stoichiometry N” value is on record?
**A.** 3
